Data from US20260242478A1 (published 2026).
Read-outs that look alike come from different tables or passages of the source. Where no end group is shown, it is not given here.

Tests used:
[1] = molecular target: T1, PSMA Fab (Fab biotinylated for capture on neutravidin plates (site not given)); assay: phage ELISA: biotinylated PSMA Fab on neutravidin plate, clonal phage supernatant, anti-M13 HRP; blocking buffer alone
T1 construct: also called Anti-PSMA Fab; 006 PSMA Fab

[2] = molecular target: T1, PSMA Fab; assay: phage ELISA: biotinylated PSMA Fab on neutravidin plate, clonal phage supernatant, anti-M13 HRP; wells pre-incubated with PSMA antigen as competitor
[3] = molecular target: T2, PSMA Fab (SEQ ID NOs: 19, 20); assay: competition ELISA, peptide titrated against 0.3 nM PSMA Fab on captured biotinylated PSMA
T2 construct: also called 006 PSMA Fab; anti-PSMA Fab

[4] = molecular target: T2, PSMA Fab (SEQ ID NOs: 19, 20); assay: as above; remark: listed apart in the source
[5] = molecular target: T2, PSMA Fab (SEQ ID NOs: 19, 20); assay: as above; remark: listed apart in the source
[6] = molecular target: T3, Anti-CD28 Fab (SEQ ID NOs: 696, 697); assay: phage binding ELISA; anti-CD28 Fab on plate pre-incubated with CD28 antigen as competitor, anti-M13 HRP detection
T3 construct: Biotinylated and captured on neutravidin coated plates in the panning ELISA

[7] = molecular target: T3, Anti-CD28 Fab (SEQ ID NOs: 696, 697); assay: phage binding ELISA; biotinylated anti-CD28 Fab on neutravidin plate, clonal phage supernatant, anti-M13 HRP detection;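 further: wells pretreated with blocking buffer, either plus or minus CD28 antigen, then given crude phage supernatant briefly without washing in between, then washed before anti-M13 HRP readout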
[8] = molecular target: Ab-15; assay: BLI (Octet): biotinylated peptide on sensor, Ab-15 titrated, 1:1 model
[9] = molecular target: Ab-15; assay: binding ELISA: biotinylated peptide on neutravidin plate, Ab-15 titrated
[10] = molecular target: Ab-15; assay: BLI (Octet): sensor loaded with 200 nM biotinylated peptide, 100 nM Ab-15;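 on t1/2: binding association and dissociation tracked in real time, fitted to a 1:1 binding model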
[11] = molecular target: Ab-15; assay: competition ELISA: peptide titrated against 1 nM Ab-15; competitor plate-bound CD28
[12] = molecular target: T4, Peptide-219 (cysteine pairing not given here; also: biotinylated, site not given here); assay: BLI, biotinylated peptide on sensor
T4 peptide: HVKLCKPAWMCQGL

[13] = molecular target: T5, Peptide-225 (cysteine pairing not given here; also: biotinylated, site not given here); assay: BLI, biotinylated peptide on sensor
T5 peptide: IPKSCIPSWMCTGF

[14] = molecular target: T6, Peptide-227 (cysteine pairing not given here; also: biotinylated, site not given here); assay: BLI, biotinylated peptide on sensor
T6 peptide: LDNWCKPSWMCTGF

[15] = molecular target: T7, Peptide-230 (cysteine pairing not given here; also: biotinylated, site not given here); assay: BLI, biotinylated peptide on sensor
T7 peptide: VTKWCIPPWMCEVT

[16] = molecular target: T8, Peptide-232 (cysteine pairing not given here; also: biotinylated, site not given here); assay: BLI, biotinylated peptide on sensor
T8 peptide: LDKWCVPKWMCSGL

[17] = molecular target: T9, Peptide-233 (cysteine pairing not given here; also: biotinylated, site not given here); assay: BLI, biotinylated peptide on sensor
T9 peptide: GEKWCIPDWMCSGF

[18] = molecular target: T10, Peptide-235 (cysteine pairing not given here; also: biotinylated, site not given here); assay: BLI, biotinylated peptide on sensor
T10 peptide: VEKLCTPIWMCLGF

[19] = molecular target: T11, Peptide-236 (cysteine pairing not given here; also: biotinylated, site not given here); assay: BLI, biotinylated peptide on sensor
T11 peptide: DVKLCKPEWMCYGL

[20] = molecular target: T12, Peptide-239 (cysteine pairing not given here; also: biotinylated, site not given here); assay: BLI, biotinylated peptide on sensor
T12 peptide: IDIRCTPIWMCVGF

[21] = molecular target: T13, Peptide-263 (cysteine pairing not given here; also: biotinylated, site not given here); assay: BLI, biotinylated peptide on sensor
T13 peptide: AVKACIPEWMCIGF

[22] = molecular target: T14, Peptide-267 (cysteine pairing not given here; also: biotinylated, site not given here); assay: BLI, biotinylated peptide on sensor
T14 peptide: FTNYCVPSWMCTGF

[23] = molecular target: T15, Peptide-268 (cysteine pairing not given here; also: biotinylated, site not given here); assay: BLI, biotinylated peptide on sensor
T15 peptide: VEKVCKPVWMCVGF

[24] = molecular target: T16, Peptide-270 (cysteine pairing not given here; also: biotinylated, site not given here); assay: BLI, biotinylated peptide on sensor
T16 peptide: ESRLCVPAWMCAGF

[25] = molecular target: T17, Peptide-271 (cysteine pairing not given here; also: biotinylated, site not given here); assay: BLI, biotinylated peptide on sensor
T17 peptide: EDILCKPKWMCEGF

[26] = molecular target: T18, Peptide-274 (cysteine pairing not given here; also: biotinylated, site not given here); assay: BLI, biotinylated peptide on sensor
T18 peptide: ITPVCKPLWMCSGL

[27] = molecular target: T19, Peptide-277 (cysteine pairing not given here; also: biotinylated (site not given here)); assay: BLI, biotinylated peptide on sensor
T19 peptide: VVIKCKPEWMCSGF

[28] = molecular target: T20, Peptide-282 (cysteine pairing not given here; also: biotinylated (site not given here)); assay: BLI, biotinylated peptide on sensor
T20 peptide: IVVKCVPSWMCEGF

[29] = molecular target: T21, Peptide-283 (cysteine pairing not given here; also: biotinylated (site not given here)); assay: BLI, biotinylated peptide on sensor
T21 peptide: TVAYCKPAWMCQGF

[30] = molecular target: T22, Peptide-284 (cysteine pairing not given here; also: biotinylated (site not given here)); assay: BLI, biotinylated peptide on sensor
T22 peptide: TEVRCTPPWMCLGF

[31] = molecular target: T23, Peptide-285 (cysteine pairing not given here; also: biotinylated (site not given here)); assay: BLI, biotinylated peptide on sensor
T23 peptide: VERLCTPAWMCHGF

[32] = molecular target: T24, Peptide-286 (cysteine pairing not given here; also: biotinylated (site not given here)); assay: BLI, biotinylated peptide on sensor
T24 peptide: VLKYCIPDWMCAGI

[33] = molecular target: Ab-15; assay: BLI (Octet): biotinylated peptide on sensor, Ab-15 titrated, 1:1 model; remark: listed apart in the source
[34] = molecular target: Ab-15; assay: binding ELISA: biotinylated peptide on neutravidin plate, Ab-15 titrated; remark: listed apart in the source
[35] = molecular target: Ab-15; assay: BLI (Octet): sensor loaded with 20 nM biotinylated peptide, 100 nM Ab-15
[36] = molecular target: Ab-15; assay: BLI (Octet): sensor loaded with 200 nM biotinylated peptide, 100 nM Ab-15; remark: listed apart in the source;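 on t1/2: binding association and dissociation tracked in real time, fitted to a 1:1 binding model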
[37] = molecular target: Ab-15; assay: competition ELISA: peptide titrated against 1 nM Ab-15; competitor plate-bound CD28; remark: listed apart in the source

In the case of GWRQCEPVWMCSGF (peptide, not shown: large carriers, Clonal phage of the Peptide-180 library) [Phage-4011], the “phage binding ELISA signal” value [1] is reported as 0.423 and the “phage binding ELISA signal” value [2] is reported as 0.0672.

HCKFHDYHSWYMCY (cysteine pairing not given here; also: biotinylated (site not given here), PSMA peptide mask (P2)) [Peptide-175] was tested, and the IC50 [3] was 17.8 µM.

For FEVRCVPTWMCAGQ (peptide, not shown: large carriers, Clonal phage of the Peptide-180 library) [Phage-4010], the “phage binding ELISA signal” value [1] was 0.427 and the “phage binding ELISA signal” value [2] was 0.069.

Binder IAVLCQPNWMCAGF (cysteine pairing not given here; also: biotinylated (site not given here), PSMA peptide mask (P2)) [Peptide-180] has an IC50 [4] of 4.54 µM and an IC50 [5] of 4.5 µM.

B1: Phage-1706 (clonal phage displaying a Peptide-92 library peptide, SEQ ID NO: 2002) (peptide)
peptide: GCAAGFHYTLSTCL
modifications: cysteine pairing not given here; also: displayed as fusion to phage pIII, linker and order of fusion not given here
notes: not shown: pIII filament protein of the bacteriophage to which the peptide is fused
For B1, the “Anti-CD28 Fab signal in the presence of CD28 (phage binding ELISA)” value (“Anti-CD28 Fab signal in the presence” for short) [6] was 0.05 and the “Anti-CD28 Fab signal (phage binding ELISA)” value [7] was 0.42.

YECHQGLFHRWCVN (cysteine pairing not given here; also: biotinylated (site not given here), PSMA peptide mask (P2)) [Peptide-158] gave an IC50 [3] of 17.3 µM.

For MRSVCVPSWMCSGF (peptide, not shown: large carriers, Clonal phage of the Peptide-180 library) [Phage-4012], the “phage binding ELISA signal” value [1] was 0.422 and the “phage binding ELISA signal” value [2] was 0.176.

APRMCSPPWMCYEL (peptide, not shown: large carriers, Clonal phage of the Peptide-180 library) [Phage-4013] was tested, and the “phage binding ELISA signal” value [1] was 0.416 and the “phage binding ELISA signal” value [2] was 0.0661.

IDWCPRYLWDECYN (cysteine pairing not given here; also: biotinylated, site not given here, CD28 peptide mask) [Peptide-71] was tested, and the Kd [8] was 0.016 µM, the t1/2 [8] was 9.1 min and the EC50 [9] was 0.0021 µM. For the same binder, the “Octet signal (200 nM peptide)” value [10] was 1.52 and the IC50 [11] was 0.14 µM.

B2: Phage-1704 (clonal phage displaying a Peptide-92 library peptide, SEQ ID NO: 2000) (peptide)
peptide: SCAAGAGYGWPQCL
modifications: cysteine pairing not given here; also: displayed as fusion to phage pIII, linker and order of fusion not given here
notes: as for B1
With B2 the “Anti-CD28 Fab signal in the presence” value [6] was 0.13 and the “Anti-CD28 Fab signal (phage binding ELISA)” value [7] was 0.55.

For PELRCVPFWMCSFN (cysteine pairing not given here; also: biotinylated (site not given here), PSMA peptide mask (P2)) [Peptide-181], the IC50 [4] was 11.2 µM and the IC50 [5] was 26.1 µM.

B3: Phage-1705 (clonal phage displaying a Peptide-92 library peptide, SEQ ID NO: 2001) (peptide)
peptide: SCGGGFHYSWPLCF
modifications: cysteine pairing not given here; also: displayed as fusion to phage pIII, linker and order of fusion not given here
notes: as for B1
In the case of B3, the “Anti-CD28 Fab signal in the presence” value [6] is reported as 0.15 and the “Anti-CD28 Fab signal (phage binding ELISA)” value [7] is reported as 0.55.

For LMKWCTPRWMCAAE (cysteine pairing not given here; also: biotinylated (site not given here), PSMA peptide mask (P2)) [Peptide-179], the IC50 [4] was 4.44 µM and the IC50 [5] was 4.6 µM.

B4: PSMA Fab (SEQ ID NOs: 19, 20) (Fab, V domains shown)
VH: QVQLVESGGGVVQPGRSLRLSCAASGFAFSRYGMHWVRQAPGKGLEWVAVIWYDGSNKYYADSVKGRFTISRDNSKNTQYLQMNSLRAEDTAVYYCARGGDFLYYYYYGMDVWGQGTTVTVSS
VL: DIQMTQSPSSLSASVGDRVTITCRASQGISNYLAWYQQKTGKVPKFLIYEASTLQSGVPSRFSGGGSGTDFTLTISSLQPEDVATYYCQNYNSAPFTFGPGTKVDIKR
notes: also called 006 PSMA Fab; anti-PSMA Fab
B4: binds [12]; binds [13]; binds [14]. B4: binds [15]; binds [16]; binds [17]. B4: binds [18]; binds [19]; binds [20]. B4: binds [21]; binds [22]; binds [23]. B4: binds [24]; binds [25]; binds [26]. B4: binds [27]; binds [28]; binds [29]. B4: binds [30]; binds [31]; binds [32].

PLCGTEEVWWECRL (cysteine pairing not given here; also: biotinylated (site not given here), PSMA peptide mask (P2)) [Peptide-166] gave an IC50 [3] of 19.2 µM.

In the case of PDCVYHSFWGYSCR (cysteine pairing not given here; also: biotinylated (site not given here), PSMA peptide mask (P2)) [Peptide-178], the IC50 [3] is reported as 20.8 µM.

In the case of MDWCPRDLWVHCFA (cysteine pairing not given here; also: biotinylated, site not given here, CD28 peptide mask) [Peptide-41], the Kd [33] is reported as 0.0151 µM, the t1/2 [33] is reported as 15.5 min and the EC50 [34] is reported as 0.004 µM. The EC50 [9] was 0.001 µM, the “Octet signal (20 nM peptide)” value [35] was 0.509 and the Octet signal [36] was 2.03. The t1/2 [36] was 9.8 min, the “Octet signal (200 nM peptide)” value [10] was 1.8 and the IC50 [37] was 0.06 µM. It also gave an IC50 [11] of 0.2 µM.
